Molecular target: integrin-αvβ1 (UniProt P06756 31-1048; P05556 21-798)
Assay: SPR

integrin-αvβ1, sequence (P06756 31-992, chain 1 of 2): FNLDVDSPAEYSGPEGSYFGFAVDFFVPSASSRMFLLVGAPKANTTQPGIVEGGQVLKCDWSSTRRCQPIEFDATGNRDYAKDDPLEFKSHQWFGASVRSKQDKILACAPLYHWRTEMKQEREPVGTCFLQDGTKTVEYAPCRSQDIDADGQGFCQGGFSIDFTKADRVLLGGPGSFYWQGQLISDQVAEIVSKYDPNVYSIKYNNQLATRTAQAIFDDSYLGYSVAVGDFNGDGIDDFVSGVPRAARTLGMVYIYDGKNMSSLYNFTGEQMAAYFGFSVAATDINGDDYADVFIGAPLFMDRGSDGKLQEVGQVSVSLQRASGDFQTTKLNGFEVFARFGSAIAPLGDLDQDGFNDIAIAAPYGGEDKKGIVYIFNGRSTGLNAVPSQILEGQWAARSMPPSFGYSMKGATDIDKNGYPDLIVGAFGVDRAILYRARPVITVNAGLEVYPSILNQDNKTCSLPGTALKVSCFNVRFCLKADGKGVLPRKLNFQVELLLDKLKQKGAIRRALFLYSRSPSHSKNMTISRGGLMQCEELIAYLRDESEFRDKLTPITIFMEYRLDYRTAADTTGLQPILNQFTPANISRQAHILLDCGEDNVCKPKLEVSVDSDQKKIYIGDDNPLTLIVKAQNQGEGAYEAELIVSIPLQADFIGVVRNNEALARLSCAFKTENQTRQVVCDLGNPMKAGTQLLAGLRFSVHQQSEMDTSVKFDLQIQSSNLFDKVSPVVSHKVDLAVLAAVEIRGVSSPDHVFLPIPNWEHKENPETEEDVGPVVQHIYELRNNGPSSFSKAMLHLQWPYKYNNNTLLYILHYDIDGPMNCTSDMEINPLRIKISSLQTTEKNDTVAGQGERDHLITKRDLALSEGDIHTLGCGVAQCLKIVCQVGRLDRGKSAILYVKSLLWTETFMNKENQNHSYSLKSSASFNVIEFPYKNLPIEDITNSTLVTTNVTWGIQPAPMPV
integrin-αvβ1, sequence (P05556 21-728, chain 2 of 2): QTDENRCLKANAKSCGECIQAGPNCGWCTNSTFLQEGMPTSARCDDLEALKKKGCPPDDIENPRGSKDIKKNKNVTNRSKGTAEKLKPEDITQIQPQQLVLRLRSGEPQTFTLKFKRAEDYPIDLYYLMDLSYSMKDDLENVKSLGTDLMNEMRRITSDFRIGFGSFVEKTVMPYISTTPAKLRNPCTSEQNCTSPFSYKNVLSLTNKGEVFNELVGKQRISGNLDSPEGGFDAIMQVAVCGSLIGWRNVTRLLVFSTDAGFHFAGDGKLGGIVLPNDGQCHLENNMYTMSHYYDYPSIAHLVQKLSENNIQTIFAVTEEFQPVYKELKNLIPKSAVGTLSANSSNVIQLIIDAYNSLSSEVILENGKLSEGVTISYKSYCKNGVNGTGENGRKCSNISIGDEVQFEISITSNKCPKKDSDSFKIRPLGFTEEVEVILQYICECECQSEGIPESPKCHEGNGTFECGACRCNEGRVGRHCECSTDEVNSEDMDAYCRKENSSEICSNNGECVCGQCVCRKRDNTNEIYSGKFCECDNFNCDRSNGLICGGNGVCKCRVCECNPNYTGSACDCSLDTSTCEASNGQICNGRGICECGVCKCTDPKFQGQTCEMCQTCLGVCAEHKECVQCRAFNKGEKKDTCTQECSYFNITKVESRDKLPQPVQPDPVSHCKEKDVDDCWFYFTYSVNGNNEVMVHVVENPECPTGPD

B1: SDC4_(87-131) (peptide)
peptide: NHIPERAGSGSQVPTEPKKLEENEVIPKRISPVEESEDVSNKVSM
modifications: The limits and source of the SPR ligand are not printed. The soluble ectodomain heterodimer is assumed by convention from the UniProt extracellular topology. Alpha-V may be cleaved into heavy and light chains joined by a disulfide. Amine-coupled to a CM5 chip.
- Kd: 43.6 nM
